# Measured values published in paper doi:10.1101/2024.10.24.620072.
# Assays:
# [1] = molecular target: human (H3-H4)2 tetramer (human) (UniProt P68431); experiment: MST
# [2] = molecular target: fluorescently labeled H2a(G129C)-H2b dimer (human) (UniProt P04908); experiment: MST
substance,measurement,setting,value
"human α-Synuclein, full-length (from UniProt P37840 1-140) (natural protein)",Kd,[1],50 nM
αSyn(1-103) (from UniProt P37840 1-103) (domain or fragment),Kd,[1],107 nM
αSyn(1-131) (from UniProt P37840 1-131) (domain or fragment),Kd,[2],32400 nM
αSyn(121-140) peptide (from UniProt P37840 121-140),KD of one of two binding sites,[2],500 nM
same,KD of the other of two binding sites,[2],2600 nM
